From article PMC8420271 (The EMBO Journal, 2021)

B1: FLAG-tagged full-length GSDMD (natural protein)
chain: MGSAFERVVRRVVQELDHGGEFIPVTSLQSSTGFQPYCLVVRKPSSSWFWKPRYKCVNLSIKDILEPDAAEPDVQRGRSFHFYDAMDGQIQGSVELAAPGQAKIAGGAAVSDSSSTSMNVYSLSVDPNTWQTLLHERHLRQPEHKVLQQLRSRGDNVYVVTEVLQTQKEVEVTRTHKREGSGRFSLPGATCLQGEGQGHLSQKKTVTIPSGSTLAFRVAQLVIDSDLDVLLFPDKKQRTFQPPATGHKRSTSEGAWPQLPSGLSMMRCLHNFLTDGVPAEGAFTEDFQGLRAEVETISKELELLDRELCQLLLEGLEGVLRDQLALRALEEALEQGQSLGPVEPLDGPAGAVLECLVLSSGMLVPELAIPVVYLLGALTMLSETQHKLLAEALESQTLLGPLELVGSLLEQSAPWQERSTMSLPPGLLGNSWGEGAPAWVLLDECGLELGEDTPHVCWEPQAQGRMCALYASLALLSGLSQEPH
B2: caspase-1 p20 (C285A)-His / p10-His complex (complex)
chain 1: NPAMPTSSGSEGNVKLCSLEEAQRIWKQKSAEIYPIMDKSSRTRLALIICNEEFDSIPRRTGAEVDITGMTMLLQNLGYSVDVKKNLTASDMTTELEAFAHRPEHKTSDSTFLVFMSHGIREGICGKKHSEQVPDILQLNAIFNMLNTKNCPSLKDKPKVIIIQAARGDSPGVVWFKD
chain 2: AIKKAHIEKDFIAFCSSTPDNVSWRHPTMGSVFIGRLIEHMQEYACSCDVEEIFRKVRFSFEQPDGRAQMPTTERVTLTRCFYLFPGH
B3: GST-GSDMD truncation lacking aa 302-310 (natural protein)
chain: MGSAFERVVRRVVQELDHGGEFIPVTSLQSSTGFQPYCLVVRKPSSSWFWKPRYKCVNLSIKDILEPDAAEPDVQRGRSFHFYDAMDGQIQGSVELAAPGQAKIAGGAAVSDSSSTSMNVYSLSVDPNTWQTLLHERHLRQPEHKVLQQLRSRGDNVYVVTEVLQTQKEVEVTRTHKREGSGRFSLPGATCLQGEGQGHLSQKKTVTIPSGSTLAFRVAQLVIDSDLDVLLFPDKKQRTFQPPATGHKRSTSEGAWPQLPSGLSMMRCLHNFLTDGVPAEGAFTEDFQGLRAEVETISKELLLLEGLEGVLRDQLALRALEEALEQGQSLGPVEPLDGPAGAVLECLVLSSGMLVPELAIPVVYLLGALTMLSETQHKLLAEALESQTLLGPLELVGSLLEQSAPWQERSTMSLPPGLLGNSWGEGAPAWVLLDECGLELGEDTPHVCWEPQAQGRMCALYASLALLSGLSQEPH
B4: GST-GSDMD (full-length human GSDMD) (natural protein)
chain: B1 chain
B5: GST-tagged GSDMD linker containing amino acids 260-290 (domain or fragment)
chain: PSGLSMMRCLHNFLTDGVPAEGAFTEDFQGL
B6: GST-GSDMD truncation lacking aa 350-368 (natural protein)
chain: MGSAFERVVRRVVQELDHGGEFIPVTSLQSSTGFQPYCLVVRKPSSSWFWKPRYKCVNLSIKDILEPDAAEPDVQRGRSFHFYDAMDGQIQGSVELAAPGQAKIAGGAAVSDSSSTSMNVYSLSVDPNTWQTLLHERHLRQPEHKVLQQLRSRGDNVYVVTEVLQTQKEVEVTRTHKREGSGRFSLPGATCLQGEGQGHLSQKKTVTIPSGSTLAFRVAQLVIDSDLDVLLFPDKKQRTFQPPATGHKRSTSEGAWPQLPSGLSMMRCLHNFLTDGVPAEGAFTEDFQGLRAEVETISKELELLDRELCQLLLEGLEGVLRDQLALRALEEALEQGQSLGPVEPLDGPAIPVVYLLGALTMLSETQHKLLAEALESQTLLGPLELVGSLLEQSAPWQERSTMSLPPGLLGNSWGEGAPAWVLLDECGLELGEDTPHVCWEPQAQGRMCALYASLALLSGLSQEPH
B7: GST-GSDMD truncation lacking both aa 302-310 and aa 350-368 (natural protein)
chain: MGSAFERVVRRVVQELDHGGEFIPVTSLQSSTGFQPYCLVVRKPSSSWFWKPRYKCVNLSIKDILEPDAAEPDVQRGRSFHFYDAMDGQIQGSVELAAPGQAKIAGGAAVSDSSSTSMNVYSLSVDPNTWQTLLHERHLRQPEHKVLQQLRSRGDNVYVVTEVLQTQKEVEVTRTHKREGSGRFSLPGATCLQGEGQGHLSQKKTVTIPSGSTLAFRVAQLVIDSDLDVLLFPDKKQRTFQPPATGHKRSTSEGAWPQLPSGLSMMRCLHNFLTDGVPAEGAFTEDFQGLRAEVETISKELLLLEGLEGVLRDQLALRALEEALEQGQSLGPVEPLDGPAIPVVYLLGALTMLSETQHKLLAEALESQTLLGPLELVGSLLEQSAPWQERSTMSLPPGLLGNSWGEGAPAWVLLDECGLELGEDTPHVCWEPQAQGRMCALYASLALLSGLSQEPH
B8: GST-tagged GSDMD linker containing amino acids 265-284 (domain or fragment)
chain: MMRCLHNFLTDGVPAEGAFT
B9: GST-tagged GSDMD linker containing amino acids 270-280 (domain or fragment)
chain: HNFLTDGVPAE

target: Myc-tagged SARS-CoV-2 nucleocapsid (SARS-CoV-2, UniProt P0DTC9 1-419); assay: co-IP

**Q.** Does B1 bind?
**A.** binds

target: B4; assay: pull-down

**Q.** Does B2 bind?
**A.** binds

target: His-tagged SARS-CoV-2 nucleocapsid (SARS-CoV-2, UniProt P0DTC9 1-419); assay: pull-down

**Q.** Does B3 bind?
**A.** binds

**Q.** Does B4 bind?
**A.** binds

**Q.** Does B5 bind?
**A.** binds

**Q.** Does B6 bind?
**A.** binds

**Q.** Does B7 bind?
**A.** binds

**Q.** Does B8 bind?
**A.** binds

**Q.** Does B9 bind?
**A.** binds
